B1: Broad substrate specificity ATP-binding cassette transporter ABCG2 (Homo sapiens), Q9UNQ0 (parent)
chain: MSSSNVEVFIPVSQGNTNGFPATASNDLKAFTEGAVLSFHNICYRVKLKSGFLPCRKPVEKEILSNINGIMKPGLNAILGPTGGGKSSLLDVLAARKDPSGLSGDVLINGAPRPANFKCNSGYVVQDDVVMGTLTVRENLQFSAALRLATTMTNHEKNERINRVIQELGLDKVADSKVGTQFIRGVSGGERKRTSIGMELITDPSILFLDEPTTGLDSSTANAVLLLLKRMSKQGRTIIFSIHQPRYSIFKLFDSLTLLASGRLMFHGPAQEALGYFESAGYHCEAYNNPADFFLDIINGDSTAVALNREEDFKATEIIEPSKQDKPLIEKLAEIYVNSSFYKETKAELHQLSGGEKKKKITVFKEISYTTSFCHQLRWVSKRSFKNLLGNPQASIAQIIVTVVLGLVIGAIYFGLKNDSTGIQNRAGVLFFLTTNQCFSSVSAVELFVVEKKLFIHEYISGYYRVSSYFLGKLLSDLLPMRMLPSIIFTCIVYFMLGLKPKADAFFVMMFTLMMVAYSASSMALAIAAGQSVVSVATLLMTICFVFMMIFSGLLVNLTTIASWLSWLQYFSIPRYGFTALQHNEFLGQNFCPGLNATGNNPCNYATCTGEEYLVKQGIDLSPWGLWKNHVALACMIVIFLTIAYLKLLFLKKYS

Variants of: B1
Conditions: with ubc_human UBC

| Variant | effect of a mutation on the interaction |
| --- | --- |
| N596Q | increasing interaction |

Reference: IntAct's records for PubMed 19909340
